Data reported in patent US20080199496A1.

T1: scrambled RNase A (reduced and denatured ribonuclease A), P61823
T1 chain: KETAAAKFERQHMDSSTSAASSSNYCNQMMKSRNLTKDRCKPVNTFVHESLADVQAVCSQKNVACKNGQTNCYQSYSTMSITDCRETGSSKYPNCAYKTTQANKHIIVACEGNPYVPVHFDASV

B1: bovine protein disulfide-isomerase (protein)
chain: APDEEDHVLVLHKGNFDEALAAHKYLLVEFYAPWCGHCKALAPEYAKAAGKLKAEGSEIRLAKVDATEESDLAQQYGVRGYPTIKFFKNGDTASPKEYTAGREADDIVNWLKKRTGPAASTLSDGAAAEALVESSEVAVIGFFKDMESDSAKQFFLAAEVIDDIPFGITSNSDVFSKYQLDKDGVVLFKKFDEGRNNFEGEVTKEKLLDFIKHNQLPLVIEFTEQTAPKIFGGEIKTHILLFLPKSVSDYEGKLSNFKKAAESFKGKILFIFIDSDHTDNQRILEFFGLKKEECPAVRLITLEEEMTKYKPESDELTAEKITEFCHRFLEGKIKPHLMSQELPDDWDKQPVKVLVGKNFEEVAFDEKKNVFVEFYAPWCGHCKQLAPIWDKLGETYKDHENIVIAKMDSTANEVEAVKVHSFPTLKFFPASADRTVIDYNGERTLDGFKKFLESGGQDGAGDDDDLEDLEEAEEPDLEEDDDQKAVKDEL
B2: recombinant protein LmPDI-(His)6 produced in E. coli (protein)
chain: RESTAESLKLTKENFNETIAKSEIFLVKFYVDTCGYCQMLAPEWEKAANETIDNALMGEVDCHSQPELAANFSIRGYPTIILFRNGKEAEHYGGARTKDDIIKYIKANVGPAVTPASNAEEVTRAKEEHDVVCVGLTANNSTSLSTTLAEAAQSFRVSLKFFEAEPKLFPDEKPETIVVYRKGGEKEVYDGPMEVEKLTEFLQISRVAFGGEITPENYQYYSVIKRPVGWAMVKPNETASIELKESLTEVGKKMRSHMVVLWVNISKHPVWRDFGVPEDAKYPAFLAIHWGANYLHSTAEVVTRESLEKFILEFAAGRVEPTIKSLPVPEVETVDGKTTIVAKTMQKHLTSGKDMLILFFAPWCGHCKNFAPTFDKIAKEFDATDLIVAELDATANYVNSSTFTVTAFPTVFFVPNGGKPVVFEGERSFENVYEFVRKHVTTFKVSEKPANVTEEKKSEEENKSSKSNESNDSNESNVDKQDL

What was measured:
[1] = target: recombinant protein LmPDI-(His)6 produced in E. coli (Leishmania major); assay: cell-based or functional assay
[2] = target: T1, scrambled RNase A (reduced and …)

Molecule | inhibition of LmPDI activity (scrambled RNase A reactivation test) [1] [mM] | inhibition of rLmPDI activity (scrambled RNase reactivation) (% inhibition at 0.1 mM) [1] | inhibition of rLmPDI activity (scrambled RNase reactivation) (% inhibition at 0.5 mM) [1] | inhibition of rLmPDI activity (scrambled RNase reactivation) (% inhibition at 2 mM) [1] | reactivation of scrambled RNase A (RNase A activity at 296 nm) [2]
bacitracin (peptide) | 2 | 50 | 70 | 100 | –
zinc bacitracin (peptide) | 2 | 50 | 70 | 100 | –
B1 | – | – | – | – | LmPDI is capable of restoring RNase A activity in a similar manner to that of bovine PDI, used as a control
B2 | – | – | – | – | LmPDI is capable of restoring RNase A activity in a similar manner to that of bovine PDI
